# Molecular target: GFP-tagged GluR1 (ΔL2–3) (UniProt P19490)
# Test: co-IP
# UniProt P19490, sequence (P19490 19-907, stated change not applied): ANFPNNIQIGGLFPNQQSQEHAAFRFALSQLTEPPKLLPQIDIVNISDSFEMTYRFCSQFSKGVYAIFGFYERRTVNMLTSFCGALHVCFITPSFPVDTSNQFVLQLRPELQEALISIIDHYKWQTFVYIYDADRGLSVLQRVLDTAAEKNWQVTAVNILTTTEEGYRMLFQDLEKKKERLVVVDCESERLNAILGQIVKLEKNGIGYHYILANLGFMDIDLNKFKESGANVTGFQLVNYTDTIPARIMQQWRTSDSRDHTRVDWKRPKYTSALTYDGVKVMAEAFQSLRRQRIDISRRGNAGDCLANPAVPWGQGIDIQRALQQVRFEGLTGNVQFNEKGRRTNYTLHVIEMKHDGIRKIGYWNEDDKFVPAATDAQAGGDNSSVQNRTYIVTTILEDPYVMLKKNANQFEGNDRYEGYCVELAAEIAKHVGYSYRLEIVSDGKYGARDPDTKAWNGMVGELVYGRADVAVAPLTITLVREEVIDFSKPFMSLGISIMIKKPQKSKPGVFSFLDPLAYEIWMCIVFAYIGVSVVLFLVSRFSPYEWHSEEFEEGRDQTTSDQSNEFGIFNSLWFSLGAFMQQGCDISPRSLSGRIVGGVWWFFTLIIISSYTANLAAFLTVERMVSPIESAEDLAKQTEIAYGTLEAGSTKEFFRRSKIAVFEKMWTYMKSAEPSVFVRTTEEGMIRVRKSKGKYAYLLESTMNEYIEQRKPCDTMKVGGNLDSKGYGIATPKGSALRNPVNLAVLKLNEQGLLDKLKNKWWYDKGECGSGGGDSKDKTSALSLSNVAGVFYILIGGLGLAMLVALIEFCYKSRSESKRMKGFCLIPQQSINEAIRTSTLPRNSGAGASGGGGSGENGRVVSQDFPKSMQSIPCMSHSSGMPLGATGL
substance,measurement,value
HA-tagged p62 (from UniProt Q13501 1-440) (natural protein),"interaction, percent of control (wild-type GluR1)",78 % of control

# Reference: article PMC2745981
